Measurements as given in patent publication US20250002528A1 (OXFORD UNIVERSITY INNOVATION, published 2025).

Assays:
[1] = target: T1, SpyTag003-MBP; assay: ITC, monomeric SpySwitch, pH 7.5, 5 °C; ITC, pH 7.5, 5 C
T1 construct: Fusion of SpyTag003 and MBP

[2] = target: T2, SpyTag-MBP; assay: as above
T2 construct: Fusion of SpyTag and MBP

B1: SpySwitch (designed binder)
chain: MSYYHHHHHHGSGGSGAMVTTLSGLSGEQGPSGDMTTEEDSATHIHFHKHDEDGRELAGATMELRDCSGKTISTWITDGHVKDFYLYPGKYTFVATAAPDGHHVATPIEFTINEDGQVTVDGEATEGDPHTGSSGS
notes: also called SpySwitch resin; monomeric SpySwitch
Kd [1]: 1500 nM
stoichiometry [1]: 1
Kd [2]: 1100 nM
stoichiometry [2]: 1
